B1: TRIM15 (parent)
chain: QSSGKILLCPLCQEEEQAETPMAP

Variants of: B1
Experiment: protein stability index of a GFP-peptide fusion (GPS, HEK-293T) (PSI 1-6); higher = more stable
Conditions: c terminus: a fixed tail appended
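Note: lentivirally expressed fusions sorted by FACS into six bins by GFP to DsRed ratio, PSI derived from sequencing read proportions per bin multiplied by bin number.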

Protein stability index: each site, then its substitutions
C12: V 4.62, M 4.86, H 4.66, Q 5.09, I 4.68, P 5.04, Y 4.54, W 3.75, D 4.87, E 5.46, S 5.23, K 4.93, A 4.22, L 4.18, T 5.43, F 4.81, N 4.99
E14: Y 2.5, M 2.14, I 2.54, D 3.69, A 2.43, K 3.14, W 1.73, T 2.46, F 1.73, Q 2.55, P 3.39, G 3.64, N 3.32, C 2.55, R 3.3, V 2.75
E16: V 2.01, P 3.28, F 2.23, Y 3.08, K 3.08, D 3.31, C 2.55, L 2.06, I 2.69, Q 1.72, S 2.59, W 2.71, T 2.61, N 3.1, G 2.78, M 2.34
L8: Y 3.28
Q13: K 3.85, L 3.12, R 2.69, P 4.49, Y 3.31, I 3.26, W 2.35, A 2.77, S 3.54, V 3.91, H 2.95, E 4.64, C 2.79, D 4.25, F 2.61, G 3.46, T 2.69, N 3.65, M 2.84
L11: H 3.68, T 4.81, V 4.09, Q 4.24, K 4.54, W 3.52, N 5.01, F 3.42, G 4.63, R 4.3, D 4.98, I 3.94, E 4.72, S 4.7, P 5.27, Y 3.01, C 3.28, M 3.78
Q17: V 2.82, R 2.76, S 3.67, I 2.88, H 3.05, D 3.38, C 2.23, P 4.21, M 3.02, E 2.95, A 2.98, Y 2.87, N 3.49, T 3.63, F 2.55, K 3.29, G 3.74
E19: A 3.12, C 2, F 2.06
E15: M 2.25, G 2.9, S 2.75, Q 3.54, N 2.28, W 1.65, Y 2.53, F 2, H 2.98, R 1.81, C 2.49, P 2.84, T 2.77, D 2.97, L 2.5, A 3.17, K 3.05, V 2.35
A18: H 3.29, N 3.44, D 3.76, Y 2.89, M 3.1, E 3.34, I 3.98, L 3.25, C 3.33, T 3.61, P 4.04, S 3.74, F 2.19, G 2.73
P10: Y 2.71, C 3.77, F 2.13, M 2.75, I 1.99, H 3.42, E 4.06, G 4.31, S 3.56, A 3.35, Q 3.77, N 4.4, V 1.82
C9: N 5.59, K 5.6, S 5.41, P 5.54, F 4.38, Y 4.36, W 4.24, A 5.01, R 5.71, I 3.84, H 5.15, M 4.5, T 5.22, L 4, Q 3.61
